Assay results published in article PMC11722253.

Assays:
SPbeta integrase (SprA) = molecular target: T1, SPbeta integrase (SprA) (Bacillus subtilis phage SPbeta, UniProt O32006 1-545); assay: SEC
T1 sequence: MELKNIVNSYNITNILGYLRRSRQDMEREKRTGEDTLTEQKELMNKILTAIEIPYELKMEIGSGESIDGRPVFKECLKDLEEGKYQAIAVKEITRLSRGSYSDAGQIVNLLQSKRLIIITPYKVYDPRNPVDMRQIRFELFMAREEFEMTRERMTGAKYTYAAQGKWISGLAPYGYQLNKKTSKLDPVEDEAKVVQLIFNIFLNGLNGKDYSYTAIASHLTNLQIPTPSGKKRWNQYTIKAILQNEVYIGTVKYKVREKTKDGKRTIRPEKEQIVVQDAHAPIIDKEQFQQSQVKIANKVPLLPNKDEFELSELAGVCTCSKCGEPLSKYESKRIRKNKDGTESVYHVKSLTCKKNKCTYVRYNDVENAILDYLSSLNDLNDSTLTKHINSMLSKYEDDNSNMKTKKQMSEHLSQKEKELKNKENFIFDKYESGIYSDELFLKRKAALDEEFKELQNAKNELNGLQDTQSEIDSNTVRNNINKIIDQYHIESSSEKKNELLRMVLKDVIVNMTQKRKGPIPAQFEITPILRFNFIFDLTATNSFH

[1] = molecular target: T2, SPbeta integrase-RDF fusion (SprA-SprB) (Bacillus subtilis phage SPbeta, UniProt O32006 1-545+=TSGSGGSGGSGGSGRSGT+O34850:2-58, internal_change); assay: SEC
T2 sequence: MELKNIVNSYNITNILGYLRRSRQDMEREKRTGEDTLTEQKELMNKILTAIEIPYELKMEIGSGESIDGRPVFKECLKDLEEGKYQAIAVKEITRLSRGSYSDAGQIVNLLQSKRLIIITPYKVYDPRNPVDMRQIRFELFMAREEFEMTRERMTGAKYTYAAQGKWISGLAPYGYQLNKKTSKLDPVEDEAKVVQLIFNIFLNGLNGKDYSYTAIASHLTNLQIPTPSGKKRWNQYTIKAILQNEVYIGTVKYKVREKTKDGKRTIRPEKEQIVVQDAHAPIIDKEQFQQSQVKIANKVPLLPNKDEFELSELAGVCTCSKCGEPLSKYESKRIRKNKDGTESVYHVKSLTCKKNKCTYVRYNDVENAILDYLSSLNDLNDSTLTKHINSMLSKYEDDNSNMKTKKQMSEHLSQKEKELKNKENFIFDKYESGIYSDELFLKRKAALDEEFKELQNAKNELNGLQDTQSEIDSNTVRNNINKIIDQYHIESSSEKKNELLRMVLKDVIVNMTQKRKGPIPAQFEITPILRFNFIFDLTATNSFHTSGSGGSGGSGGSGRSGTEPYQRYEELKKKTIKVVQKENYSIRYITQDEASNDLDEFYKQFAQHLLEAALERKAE

B1: attPmm (dsDNA)
DNA 1: AAAAAAAAGGTAGTAAGTATCTTAAAAAACAGATTTAGCTGTATATTAAGATACTTACTAC
DNA 2: GTAGTAAGTATCTTAATATACAGCTTTATCTGTTTTTTAAGATACTTACTACTTTTTTTTT
B1: binds (SPbeta integrase (SprA)); binds [1].
